Laboratory results as given in patent US20230257470A1 (published 2023).

T1: human FcγRIIa type H (human, UniProt P12318 36-217)
T1 construct: also called FcyRIIaH; FcγRIIa(H)
T1 sequence: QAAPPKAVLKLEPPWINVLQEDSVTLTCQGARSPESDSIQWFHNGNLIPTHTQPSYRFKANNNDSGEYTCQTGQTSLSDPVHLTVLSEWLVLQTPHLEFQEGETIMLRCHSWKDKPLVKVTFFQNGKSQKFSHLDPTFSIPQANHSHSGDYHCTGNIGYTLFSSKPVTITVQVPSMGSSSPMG

T2: human FcγRIIb (human, UniProt P31994 43-217, limits assumed)
T2 construct: also called FcyRIfb; FcγIIB
T2 sequence: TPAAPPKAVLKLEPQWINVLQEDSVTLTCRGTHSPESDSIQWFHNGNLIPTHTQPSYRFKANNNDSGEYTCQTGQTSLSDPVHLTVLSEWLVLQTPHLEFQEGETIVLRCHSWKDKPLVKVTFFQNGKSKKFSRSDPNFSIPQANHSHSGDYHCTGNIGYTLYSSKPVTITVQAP


How the values were obtained:
Test in all cases: SPR (Biacore), FcγR over captured antibody; binding amount relative to IL6R-BF648/IL6R-L x100
human FcγRIa = biological target: T3, human FcγRIa (human, UniProt P12314 16-292, limits assumed)
T3 construct: also called FcyRIa; CD64

human FcγRIIa type H = biological target: T1, human FcγRIIa type H
human FcγRIIb = biological target: T2, human FcγRIIb
human FcγRIIIa type V = biological target: T4, human FcγRIIIa type V (human, UniProt P08637 17-208, limits assumed)
T4 construct: also called FcyRIIIa; FcγRIIIaV
T4 sequence (P08637 other isoform, or with tags, fused parts or gaps limits assumed): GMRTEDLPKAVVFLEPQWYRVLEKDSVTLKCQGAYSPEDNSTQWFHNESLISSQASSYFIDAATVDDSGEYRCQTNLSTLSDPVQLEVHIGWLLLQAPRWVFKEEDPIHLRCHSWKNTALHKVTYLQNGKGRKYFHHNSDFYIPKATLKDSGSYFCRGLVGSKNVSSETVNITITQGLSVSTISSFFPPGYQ

T3 sequence (P12314 16-292 limits assumed): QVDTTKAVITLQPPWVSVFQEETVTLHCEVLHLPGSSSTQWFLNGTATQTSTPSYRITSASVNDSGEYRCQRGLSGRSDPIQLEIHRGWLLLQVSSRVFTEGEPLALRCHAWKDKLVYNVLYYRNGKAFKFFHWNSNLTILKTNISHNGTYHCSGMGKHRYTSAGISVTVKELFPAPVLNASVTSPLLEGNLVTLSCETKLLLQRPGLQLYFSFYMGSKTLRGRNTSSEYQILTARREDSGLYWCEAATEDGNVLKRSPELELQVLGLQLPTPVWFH

| Binder | relative binding (human FcγRIa) | relative binding (human FcγRIIa type H) | relative binding (human FcγRIIb) | relative binding (human FcγRIIIa type V) |
| --- | --- | --- | --- | --- |
| IL6R-BF648/IL6R-L (antibody, human IgG1, name in EU numbering, Alterations are those introduced into IL6R-B3) heavy: not shown light: DIQMTQSPSSLSASVGDRVTITCRASQDISSYLNWYQQKPGKAPKLLIYYTSRLHSGVPSRFSGSGSGTDFTFTISSLQPEDIATYYCQQGNTLPYTFGQGTKVEIK | 100 % of IL6R-BF648/IL6R-L | 100 % of IL6R-BF648/IL6R-L | 100 % of IL6R-BF648/IL6R-L | 100 % of IL6R-BF648/IL6R-L |
| IL6R-2B128/IL6R-L (antibody, human IgG1, name in EU numbering) heavy: QVQLQESGPGLVKPSETLSLTCAVSGHSISHDHAWSWVRQPPGEGLEWIGFISYSGITNYNPSLQGRVTISRDNSKNTLYLQMNSLRAEDTAVYYCARSLARTTAMDYWGEGTLVTVSSASTKGPSVFPLAPSSKSTSGGTAALGCLVKDYFPEPVTVSWNSGALTSGVHTFPAVLQSSGLYSLSSVVTVPSSSLGTQTYICNVNHKPSNTKVDKKVEPKSCDKTHTCPPCPAPELLGGDSVFLFPPKPKDTLMISRTPEVTCVVVDVSHEDPEVKFNWYVDGVEVHNAKTKPREEQDNSTYRVVSVLTVLHQDWLNGKEYKCKVSNKALPAPIEKTISKAKGQPREPQVYTLPPSRDELTKNQVSLTCLVKGFYPSDIAVEWESNGQPENNYKTTPPVLDSDGSFFLYSKLTVDKSRWQQGNVFSCSVMHEALHNHYTQESLSLSP light: DIQMTQSPSSLSASVGDRVTITCRASQDISSYLNWYQQKPGKAPKLLIYYTSRLHSGVPSRFSGSGSGTDFTFTISSLQPEDIATYYCQQGNTLPYTFGQGTKVEIK | 95 % of IL6R-BF648/IL6R-L | 37 % of IL6R-BF648/IL6R-L |  | 96 % of IL6R-BF648/IL6R-L |
| IL6R-BP078/IL6R-L (antibody, human IgG1, name in EU numbering) heavy: QVQLQESGPGLVKPSETLSLTCAVSGHSISHDHAWSWVRQPPGEGLEWIGFISYSGITNYNPSLQGRVTISRDNSKNTLYLQMNSLRAEDTAVYYCARSLARTTAMDYWGEGTLVTVSSASTKGPSVFPLAPSSKSTSGGTAALGCLVKDYFPEPVTVSWNSGALTSGVHTFPAVLQSSGLYSLSSVVTVPSSSLGTQTYICNVNHKPSNTKVDKKVEPKSCDKTHTCPPCPAPELLGGDSVFLFPPKPKDTLMISRTPEVTCVVVDVSHEDPEVKFNWYVDGVEVHNAKTKPREEQYNSTYRVVSVLTVLHQDWLNGKEYKCKVSNKALPMPIEKTISKAKGQPREPQVYTLPPSRDELTKNQVSLTCLVKGFYPSDIAVEWESNGQPENNYKTTPPVLDSDGSFFLYSKLTVDKSRWQQGNVFSCSVMHEALHNHYTQESLSLSP light: DIQMTQSPSSLSASVGDRVTITCRASQDISSYLNWYQQKPGKAPKLLIYYTSRLHSGVPSRFSGSGSGTDFTFTISSLQPEDIATYYCQQGNTLPYTFGQGTKVEIK | 106 % of IL6R-BF648/IL6R-L | 89 % of IL6R-BF648/IL6R-L |  | 91 % of IL6R-BF648/IL6R-L |
| IL6R-BP110/IL6R-L (antibody, human IgG1, name in EU numbering) heavy: QVQLQESGPGLVKPSETLSLTCAVSGHSISHDHAWSWVRQPPGEGLEWIGFISYSGITNYNPSLQGRVTISRDNSKNTLYLQMNSLRAEDTAVYYCARSLARTTAMDYWGEGTLVTVSSASTKGPSVFPLAPSSKSTSGGTAALGCLVKDYFPEPVTVSWNSGALTSGVHTFPAVLQSSGLYSLSSVVTVPSSSLGTQTYICNVNHKPSNTKVDKKVEPKSCDKTHTCPPCPAPELLGGDSVFLFPPKPKDTLMISRTPEVTCVVVDVSNEDPEVKFNWYVDGVEVHNAKTKPREEQYNSTYRVVSVLTVLHQDWLNGKEYKCKVSNKALPAPIEKTISKAKGQPREPQVYTLPPSRDELTKNQVSLTCLVKGFYPSDIAVEWESNGQPENNYKTTPPVLDSDGSFFLYSKLTVDKSRWQQGNVFSCSVMHEALHNHYTQESLSLSP light: DIQMTQSPSSLSASVGDRVTITCRASQDISSYLNWYQQKPGKAPKLLIYYTSRLHSGVPSRFSGSGSGTDFTFTISSLQPEDIATYYCQQGNTLPYTFGQGTKVEIK |  | 127 % of IL6R-BF648/IL6R-L | 101 % of IL6R-BF648/IL6R-L | 127 % of IL6R-BF648/IL6R-L |
| IL6R-BP112/IL6R-L (antibody, human IgG1, name in EU numbering) heavy: QVQLQESGPGLVKPSETLSLTCAVSGHSISHDHAWSWVRQPPGEGLEWIGFISYSGITNYNPSLQGRVTISRDNSKNTLYLQMNSLRAEDTAVYYCARSLARTTAMDYWGEGTLVTVSSASTKGPSVFPLAPSSKSTSGGTAALGCLVKDYFPEPVTVSWNSGALTSGVHTFPAVLQSSGLYSLSSVVTVPSSSLGTQTYICNVNHKPSNTKVDKKVEPKSCDKTHTCPPCPAPELLGGDSVFLFPPKPKDTLMISRTPEVTCVVVDVSHEDGEVKFNWYVDGVEVHNAKTKPREEQYNSTYRVVSVLTVLHQDWLNGKEYKCKVSNKALPAPIEKTISKAKGQPREPQVYTLPPSRDELTKNQVSLTCLVKGFYPSDIAVEWESNGQPENNYKTTPPVLDSDGSFFLYSKLTVDKSRWQQGNVFSCSVMHEALHNHYTQESLSLSP light: DIQMTQSPSSLSASVGDRVTITCRASQDISSYLNWYQQKPGKAPKLLIYYTSRLHSGVPSRFSGSGSGTDFTFTISSLQPEDIATYYCQQGNTLPYTFGQGTKVEIK | 119 % of IL6R-BF648/IL6R-L | 113 % of IL6R-BF648/IL6R-L | 157 % of IL6R-BF648/IL6R-L |  |
| IL6R-BP117/IL6R-L (antibody, human IgG1, name in EU numbering) heavy: QVQLQESGPGLVKPSETLSLTCAVSGHSISHDHAWSWVRQPPGEGLEWIGFISYSGITNYNPSLQGRVTISRDNSKNTLYLQMNSLRAEDTAVYYCARSLARTTAMDYWGEGTLVTVSSASTKGPSVFPLAPSSKSTSGGTAALGCLVKDYFPEPVTVSWNSGALTSGVHTFPAVLQSSGLYSLSSVVTVPSSSLGTQTYICNVNHKPSNTKVDKKVEPKSCDKTHTCPPCPAPELLGGDSVFLFPPKPKDTLMISRTPEVTCVVVDVSHEDPEVKFNWYVDGVEVHNAKTKPREEQYNSTYRVVSVLTVLHQDWLNGKEYKCKVSNDALPAPIEKTISKAKGQPREPQVYTLPPSRDELTKNQVSLTCLVKGFYPSDIAVEWESNGQPENNYKTTPPVLDSDGSFFLYSKLTVDKSRWQQGNVFSCSVMHEALHNHYTQESLSLSP light: DIQMTQSPSSLSASVGDRVTITCRASQDISSYLNWYQQKPGKAPKLLIYYTSRLHSGVPSRFSGSGSGTDFTFTISSLQPEDIATYYCQQGNTLPYTFGQGTKVEIK | 124 % of IL6R-BF648/IL6R-L | 96 % of IL6R-BF648/IL6R-L | 118 % of IL6R-BF648/IL6R-L |  |
| IL6R-BP912/IL6R-L (antibody, human IgG1, name in EU numbering) heavy: QVQLQESGPGLVKPSETLSLTCAVSGHSISHDHAWSWVRQPPGEGLEWIGFISYSGITNYNPSLQGRVTISRDNSKNTLYLQMNSLRAEDTAVYYCARSLARTTAMDYWGEGTLVTVSSASTKGPSVFPLAPSSKSTSGGTAALGCLVKDYFPEPVTVSWNSGALTSGVHTFPAVLQSSGLYSLSSVVTVPSSSLGTQTYICNVNHKPSNTKVDKKVEPKSCDKTHTCPPCPAPELLGGDSVFLFPPKPKDTLMISRTPEVTCVVVDVSHEDPEVKFNWYVDGVEVHNAKTKPREEQYNSTYRVVSVLTVLHQDWLNGKEYKCKVSNKALPRPIEKTISKAKGQPREPQVYTLPPSRDELTKNQVSLTCLVKGFYPSDIAVEWESNGQPENNYKTTPPVLDSDGSFFLYSKLTVDKSRWQQGNVFSCSVMHEALHNHYTQESLSLSP light: DIQMTQSPSSLSASVGDRVTITCRASQDISSYLNWYQQKPGKAPKLLIYYTSRLHSGVPSRFSGSGSGTDFTFTISSLQPEDIATYYCQQGNTLPYTFGQGTKVEIK | 60 % of IL6R-BF648/IL6R-L | 93 % of IL6R-BF648/IL6R-L |  | 97 % of IL6R-BF648/IL6R-L |
